The subject of this data set is Ezh2 (native PRC2) (Mus musculus). The data set is described as follows: pulldown. To be noted: RIP-seq WT RPKM.

Consider Tsix RNA, for which the binding signal (Ezh2-/- RPKM 3.27) stood at 10.3 RPKM.

Take Xist/RepA endogenous RNA: for the setting “Ezh2-/- RPKM 0”, the binding signal is 4.18 RPKM.

Source of the values: US20140142160.
